This note sets out measurements from paper PMC5897525 (Nature Communications, 2018).

The assay concerns the target T1, natural Fel d 1 (Felis catus, UniProt P30438;P30440).
T1 construct: Fel d 1 Chain 1, cat, of the natural Fel d 1 heterodimer; Fel d 1 Chain 2, cat, of the natural Fel d 1 heterodimer; also called nFel d 1; source: bought: Indoor Biotech, Catalog #LTN-FD-1
The experiment in a line: SPR; Biacore T200; REGN1909 (94-163 RU) captured on a goat anti-human Fcγ coupled surface; nFel d 1 or rFel d 1.mmh injected in 2-fold dilutions; 10 mM HEPES, 150 mM NaCl, 3 mM MgCl2, 3 mM CaCl2, 0.05% P20, pH 7.4; 1:1 binding model with mass transport limitation. The conditions noted are these: both partners purified.

B1: REGN1909 (antibody, V domains shown)
VH: EVQLVESGGGLVQPGGSLRLSCAASGFTFSSYAMSWVRQAPGKGLEWVSAISGRGYNADYADSVKGRFTISRDNSKNTLYLQMNSLRAEDTAVYYCAKLEYFDYWGQGTLVTVSS
VL: DIQMTQSPSTLSASVGDRVTITCRASQSISSWLAWYQQKPGKAPKLLIYKASSLESGVPSRFSGSGSGTDFTLTISSLRPEDFATYYCQQYNSYPLTFGGGTKVEIK
B1: the binding result is given as “binds”.
